Among the data in patent publication US20240409645A1 are P.E. binding ELISA OD values, retold here.

Positions count from the first letter of the chain named.

First the molecules themselves.
T1: mouse IL-2Rβ (mouse) (UniProt P16297)
T1 sequence (looked up): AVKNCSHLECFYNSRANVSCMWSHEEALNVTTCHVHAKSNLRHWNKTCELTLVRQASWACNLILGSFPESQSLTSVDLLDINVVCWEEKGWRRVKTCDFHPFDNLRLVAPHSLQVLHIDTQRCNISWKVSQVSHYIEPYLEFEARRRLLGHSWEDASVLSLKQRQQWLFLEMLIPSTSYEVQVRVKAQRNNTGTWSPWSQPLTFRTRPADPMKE

B1: FJ1427 P035MP02F12 (VHH)
VHH: QLQLVESGGGLVQTGTSLRLSCAASGHTSRINAMGWFRQFPGKEREFVAAISRNGGSTVYVDSVKGRFTISRDNAKSTVYLQMNSLKPEDTAVYYCTATDAVGWTTRWMTADFGFWGQGTQVTVSS
B2: FJ1427_P035MP03E02 (VHH)
VHH: QVQLVESGGGLVQVGGSLSVSCAASGRSFDSITMAYFRQAPGNEREFIAGINFSGSRTAYGDSVKGRFTISRDNAKNTVFLQMNSLNPEDTAVYYCAASPRGFYGPGHALYDYWGQGTQVTVSS
B3: FJ1427_P035MP03G05 (VHH)
VHH: EVQLVESGGGLVQIGGSLRLSCAASGRTFSSITMAYFRQVPGKEREWVAGINFSGTRTFYADSVKGRFLISRDDAKSTMYLQMNSLKPEDTAVYYCAASPRGFYGPGNALYDYWGQGTQVTVSS
B4: FJ1427 P035MP03E05 (VHH)
VHH: EVQLVESGGGLVQAGGSLRLSCAVSGVIFWSDVVGWYRQASGKQRELVATINLDDTKHYGEVVKGRFAISRDSHKNAYYLQLNSLKPEDTAVYYCNVRRGSEFYWGQGTQVTVSS
B5: FJ1427_P035MP03F01 (VHH)
VHH: QVQLVESGGGLVQVGGSLRVSCAASGRTSGDRNMGWFRQAPGKEREFVGIITWSSGSTVYADSVKGRFTISRDNAKNTVYLDMSSLKPEDTAVYYCAADYYPYSGSWNIMDYWGKGTLVTVSS
B6: FJ1427_P035MP03H01 (VHH)
VHH: QVQLVESGGGSVQTGGSLRLSCVVSGSHFISDVMGWYRQVPGKQRELVADMADGGSAKYADSVKGRFTILRDSVKNTVTLQMSSLNPEDTGVYYCKAGLWITGRHSDYWGQGTQVTVTS
B7: FJ1427_P035MP03E04 (VHH)
VHH: B6 VHH with S11L, V23A, G42E, G55N, T68S, T79Y, N86K, V92I, T102A, T118S
B8: FJ1427 P035MP03A03 (VHH)
VHH: B6 VHH with Q1E, A57V, A60G, S106F
B9: FJ1427_P035MP03A04 (VHH)
VHH: B6 VHH with Q1E, A57V, A60G, S106F
B10: FJ1427 P035MP03B04 (VHH)
VHH: QVQLVESGGGLVQTGGSLRLSCAASGSQFINDVMGWYRQVPGKQRELVADMDDTGSTKYADSVKGRFTILRDSVKNTAYLQMSNLKPEDTGVYYCKAGLWIKGRHSDYWGQGTQVTVSS
B11: FJ1427_P035MP03F06 (VHH)
VHH: B10 VHH with V5Q
B12: FJ1427_P035MP03F04 (VHH)
VHH: B10 VHH with Q1E
B13: FJ1427_P035MP03G02 (VHH)
VHH: EVQLVESGGGLVQPGGSLRLSCAISGGTLDSYGIGWVRQAPGKQREGVSCMSRSDDRTFYADSVKGRFTISKDNAKSTVYLQMTNLKPDDTAVYYCAAVDAYGCSLVQPTTYDFWGLGTQVTVSS
B14: FJ1427_P035MP03B05 (VHH)
VHH: EVQLVESGGGLVQAGGSLRLACALSGDVFVRYTMAWFRQAPGKEREFVASVTDSGRTTDYVASVQGRFTVSRDNNKNTVYLQMNSLKPEDTAVYYCAANTDYFQIRSLDRNTWGQGTQVTVSS
B15: FJ1427 P035MP03D02 (VHH)
VHH: QVQLQESGGGLVQTGGSLRLSCAVSGSRFISDVMGWYRQVPGKQRELVADMADGGSAKYADSVKGRFSILRDSVKNTVYLQMSSLKPEDTGIYYCKAGLWLAGRHSDYWGQGTQVTVSS
B16: FJ1427 P035MP03A06 (VHH)
VHH: B15 VHH with Q1E, Q5V, Q44A, L70V, V74G, N76S, V78M, I92M, L101I
B17: FJ1427 P035MP03D04 (VHH)
VHH: QVQLVESGGGLVQPGGSLRLSCAASGFTFSNYAMSWVRQAPGKELEWVSSITSAGRGTHYADTVKGRFTISRDNDENTLYLQMNSLEPEDTAVYYCAKYSSATYYPPTPAQGRDYRGQGTQVTVSS
B18: FJ1427 P035MP03B01 (VHH)
VHH: QVQLVESGGGLVQAGGSLRLSCAASGFTFSNYAMSWVRQAPGKGLEWVSSITGFGRGTDYADSVKGRFTISRDNAKNTLYLQMNSLKPEDTAVYYCARYSSSTYYPPTPARGTDYRGQGTQVTVSS
B19: FJ1427_P035MP03G03 (VHH)
VHH: B18 VHH with A14P, R19G, S30D, F54A, D59H, R98K, Q118P
B20: FJ1427_P035MP03F02 (VHH)
VHH: B18 VHH with A14P, F54A, D59Y, A75D, R98K, S100D, T113I, D114A, Y115D, T120I
B21: FJ1427_P035MP03E06 (VHH)
VHH: B18 VHH with G16R, R19G, S30D, F54A, D59H, R98K, Q118P
B22: FJ1427 P035MP03D01 (VHH)
VHH: B18 VHH with A14P, R19G, S30D, F54A, D59H, R98K, Q118P
B23: FJ1427_P035MP03B02 (VHH)
VHH: EVQLVESGGGLVQVGDSLRLSCAASGRTVGSANMGWFRQAPGKEREFVAVITWSTGSTVYADSVKGRFTISRDNAKNTVYLDMSSLKPDDTAVYYCAADVYPYSGNLNIMDYWGKGTLVTVSS
B24: FJ1427_P035MP03D03 (VHH)
VHH: B23 VHH with E1Q, M83L, D89E, L118Q
B25: FJ1427 P035MP03C02 (VHH)
VHH: B23 VHH with E1Q, D89E
B26: FJ1427 P035MP03C04 (VHH)
VHH: EVQLVESGGGLVQAGASLELSCAASGGTFSSYAMGWFRQAPGKEREFVAATTRGGGRTMYAVSTEGRFSCSRDNAKNTVNLLIKNLKPEDTAVYYCAARTSYYDGTYYPASSDFDIWGQGTQVTVSS
B27: FJ1427_P035MP03A07 (VHH)
VHH: QVQLVESGGGLVEAGGSLRLSCAASGRAFNNFPMGWFRQAPGKEREFVAAITWISGSTLYADSVKGRFTISRDKSKNTVYLQMSGLKPEDTALYYCAAALKTITRGQHDYTYWGQGTQVTVSS
B28: FJ1427 P035MP03E01 (VHH)
VHH: QVQLVESGGGLVQAGGSLRLSCAASGGTFSSYAMGWFRQAPGKEREFVAATTRGGGRTMYAVSTEGRFTCSRDNAKNTVYLLMNSLKPEDTAVYYCAAMTSYYSGTYYPDSSDFDIWGQGTQVTVSS
B29: FJ1427 P035MP03H05 (VHH)
VHH: B26 VHH with E1Q, V2L, A16G, E19A, N80Y
B30: FJ1427_P035MP03H04 (VHH)
VHH: B26 VHH with E1Q, A16G, E19A, N80Y
B31: FJ1427_P035MP03G01 (VHH)
VHH: B28 VHH with Q1E, S85R, L86V, M99R, D110A
B32: FJ1427_P035MP03A02 (VHH)
VHH: B28 VHH with K76E, L82Q, V93I

The assay deals with T1, mouse IL-2Rβ (mouse). The experiment in a line: P.E. binding ELISA on coated protein. In general terms: An ELISA detects its analyte on a solid surface through an enzyme-linked reagent.
With B1, the P.E. binding ELISA OD is 0.048 OD450 nm. As for B2, the figure is 0.05 OD450 nm; as for B3, 0.049 OD450 nm. The same measure for B4: 0.049 OD450 nm; for B5: 0.049 OD450 nm. Consider B6, for which the P.E. binding ELISA OD was found to be 0.051 OD450 nm.

As for B7, the P.E. binding ELISA OD was 0.048 OD450 nm. The same measure for B8: 0.05 OD450 nm. Molecule B9 displayed a P.E. binding ELISA OD of 0.051 OD450 nm. The molecule B10 came in with a P.E. binding ELISA OD of 0.048 OD450 nm. The molecule B11 showed a P.E. binding ELISA OD of 0.048 OD450 nm. As for B12, the figure is 0.049 OD450 nm; as for B13, 0.049 OD450 nm. As for B14, the figure is 0.05 OD450 nm.

For the molecule B15, the P.E. binding ELISA OD was 0.048 OD450 nm.

The molecule B16 yielded a P.E. binding ELISA OD of 0.047 OD450 nm. The same measure for B17: 0.048 OD450 nm. B18: the P.E. binding ELISA OD came to 0.05 OD450 nm. As for B19, the figure is 0.05 OD450 nm; as for B20, 0.049 OD450 nm; as for B21, 0.048 OD450 nm. Molecule B22 returned a P.E. binding ELISA OD of 0.048 OD450 nm. As for B23, the figure is 0.068 OD450 nm; as for B24, 0.048 OD450 nm. As for B25, the figure is 0.048 OD450 nm; as for B26, 0.048 OD450 nm. The same measure for B27: 0.049 OD450 nm. Take B28: the P.E. binding ELISA OD worked out at 0.049 OD450 nm. The same measure for B29: 0.049 OD450 nm.

The molecule B30 returned a P.E. binding ELISA OD of 0.05 OD450 nm.

B31 returned a P.E. binding ELISA OD of 0.049 OD450 nm. As for B32, the P.E. binding ELISA OD turned out to be 0.052 OD450 nm.
